Data from patent publication US20200199241A1 (Chugai, published 2020).

T1: human FcγRIIa(H) (human, UniProt P12318 36-217)
T1 construct: also called FcgRIIaH; hFcgRIIa(H)
T1 sequence: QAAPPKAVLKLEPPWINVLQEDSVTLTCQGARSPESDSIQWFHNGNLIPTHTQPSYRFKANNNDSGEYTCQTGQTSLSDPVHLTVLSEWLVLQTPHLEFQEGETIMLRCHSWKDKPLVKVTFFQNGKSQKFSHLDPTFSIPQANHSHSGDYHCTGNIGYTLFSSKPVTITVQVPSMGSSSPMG

T2: human FcγRIIa(R) (human, UniProt P12318 36-217)
T2 construct: also called FcgRIIaR; hFcgRIIa(R)
T2 chain: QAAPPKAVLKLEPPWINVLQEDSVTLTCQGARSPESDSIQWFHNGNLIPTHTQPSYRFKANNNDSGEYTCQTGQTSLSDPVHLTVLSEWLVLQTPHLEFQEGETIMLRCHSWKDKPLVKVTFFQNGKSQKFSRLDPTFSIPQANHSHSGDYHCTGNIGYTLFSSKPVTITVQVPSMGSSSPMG

T3: human FcγRIIb (human, UniProt P31994 43-217, limits assumed)
T3 construct: also called FcgRIIb; hFcgRIIb
T3 sequence: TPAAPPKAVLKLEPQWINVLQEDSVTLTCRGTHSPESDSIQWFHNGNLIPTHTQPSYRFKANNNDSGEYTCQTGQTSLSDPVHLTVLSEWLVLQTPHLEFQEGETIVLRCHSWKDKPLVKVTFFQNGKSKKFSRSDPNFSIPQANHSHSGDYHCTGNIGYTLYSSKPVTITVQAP


Columns and labels:
[1] = target: T4, human FcRn (complex with human β2-microglobulin) (human, UniProt P61769 21-119, limits assumed); assay: SPR, pH 7.0, antibody captured by Protein L, hFcRn analyte
T4 construct: soluble human FcRn complexed with β2-microglobulin was used; also called hFcRn

[2] = target: T1, human FcγRIIa(H); assay: SPR, pH 7.4, antibody captured by Protein L
[3] = target: T2, human FcγRIIa(R); assay: SPR, pH 7.4, antibody captured by Protein L
[4] = target: T5, human FcγRIIIa(V) (human, UniProt P08637 17-208, limits assumed); assay: SPR, pH 7.4, antibody captured by Protein L
T5 construct: also called hFcgRIIIa(V); FcγRIIIa allotype V158

[5] = target: T3, human FcγRIIb; assay: SPR, pH 7.4, antibody captured by Protein L
[6] = target: T6, human FcγRIa (human, UniProt P12314 16-292, limits assumed); assay: SPR, pH 7.4, antibody captured by Protein L
T6 construct: also called FcgRIa; hFcgRIa
T6 sequence (P12314 16-292 limits assumed): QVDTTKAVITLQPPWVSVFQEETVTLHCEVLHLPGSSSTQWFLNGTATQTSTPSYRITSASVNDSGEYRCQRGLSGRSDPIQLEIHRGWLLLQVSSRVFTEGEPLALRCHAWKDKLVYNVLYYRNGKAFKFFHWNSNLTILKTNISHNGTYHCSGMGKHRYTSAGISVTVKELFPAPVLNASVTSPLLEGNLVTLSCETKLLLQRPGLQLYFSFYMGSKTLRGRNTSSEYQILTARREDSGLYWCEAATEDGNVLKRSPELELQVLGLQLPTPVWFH

T5 sequence (P08637 other isoform, or with tags, fused parts or gaps limits assumed): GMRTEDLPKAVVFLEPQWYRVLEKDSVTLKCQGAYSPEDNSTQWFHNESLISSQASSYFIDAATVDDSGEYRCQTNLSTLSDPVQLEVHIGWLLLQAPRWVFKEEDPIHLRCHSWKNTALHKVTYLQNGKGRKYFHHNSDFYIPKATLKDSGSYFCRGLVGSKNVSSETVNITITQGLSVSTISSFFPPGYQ

Row | Kd [1] [nM] | binding amount [2] [RU] | binding amount [3] [RU] | binding amount [4] [RU] | binding amount [5] [RU] | binding amount [6] [RU] | Binder
1 | 140 | 1 | 1 | 1.1 | 0.4 | 1.3 | VH3-IgG2-F939/L(WT)-CK (antibody, A235R/S239K/M252Y/N434Y/Y436V in VH3-IgG2; copies: 2 + 2) heavy: QVQLQESGPGLVKPSETLSLTCAVSGHSISHDHAWSWVRQPPGEGLEWIGFISYSGITNYNPSLQGRVTISRDNSKNTLYLQMNSLRAEDTAVYYCARSLARTTAMDYWGEGTLVTVSSASTKGPSVFPLAPCSRSTSESTAALGCLVKDYFPEPVTVSWNSGALTSGVHTFPAVLQSSGLYSLSSVVTVPSSNFGTQTYTCNVDHKPSNTKVDKTVERKCCVECPPCPAPPVRGPKVFLFPPKPKDTLYISRTPEVTCVVVDVSHEDPEVQFNWYVDGVEVHNAKTKPREEQFNSTFRVVSVLTVVHQDWLNGKEYKCKVSNKGLPAPIEKTISKTKGQPREPQVYTLPPSREEMTKNQVSLTCLVKGFYPSDIAVEWESNGQPENNYKTTPPMLDSDGSFFLYSKLTVDKSRWQQGNVFSCSVMHEALHYHVTQKSLSLSP light: not shown
2 | 140 | 37.5 | 92.8 | 15.5 | 71.8 | 367 | VH3-IgG4-F890/L(WT)-CK (antibody, M252Y/N434Y/Y436V in VH3-IgG4; copies: 2 + 2) heavy: QVQLQESGPGLVKPSETLSLTCAVSGHSISHDHAWSWVRQPPGEGLEWIGFISYSGITNYNPSLQGRVTISRDNSKNTLYLQMNSLRAEDTAVYYCARSLARTTAMDYWGEGTLVTVSSASTKGPSVFPLAPCSRSTSESTAALGCLVKDYFPEPVTVSWNSGALTSGVHTFPAVLQSSGLYSLSSVVTVPSSSLGTKTYTCNVDHKPSNTKVDKRVESKYGPPCPPCPAPEFLGGPSVFLFPPKPKDTLYISRTPEVTCVVVDVSQEDPEVQFNWYVDGVEVHNAKTKPREEQFNSTYRVVSVLTVLHQDWLNGKEYKCKVSNKGLPSSIEKTISKAKGQPREPQVYTLPPSQEEMTKNQVSLTCLVKGFYPSDIAVEWESNGQPENNYKTTPPVLDSDGSFFLYSRLTVDKSRWQEGNVFSCSVMHEALHYHVTQKSLSLSL light: not shown
3 | 110 | -0.7 | -0.2 | -0.5 | 0.4 | 1.2 | VH3-IgG4-F939/L(WT)-CK (antibody, L235R/S239K/M252Y/N434Y/Y436V in VH3-IgG4; copies: 2 + 2) heavy: QVQLQESGPGLVKPSETLSLTCAVSGHSISHDHAWSWVRQPPGEGLEWIGFISYSGITNYNPSLQGRVTISRDNSKNTLYLQMNSLRAEDTAVYYCARSLARTTAMDYWGEGTLVTVSSASTKGPSVFPLAPCSRSTSESTAALGCLVKDYFPEPVTVSWNSGALTSGVHTFPAVLQSSGLYSLSSVVTVPSSSLGTKTYTCNVDHKPSNTKVDKRVESKYGPPCPPCPAPEFRGGPKVFLFPPKPKDTLYISRTPEVTCVVVDVSQEDPEVQFNWYVDGVEVHNAKTKPREEQFNSTYRVVSVLTVLHQDWLNGKEYKCKVSNKGLPSSIEKTISKAKGQPREPQVYTLPPSQEEMTKNQVSLTCLVKGFYPSDIAVEWESNGQPENNYKTTPPVLDSDGSFFLYSRLTVDKSRWQEGNVFSCSVMHEALHYHVTQKSLSLSL light: not shown
